Test results: US11278600B2, “Human alpha-galactosidase variants” (Codexis, Inc., priority 2014, dated 2022)
Numbering of substitutions follows the chain as printed.

Assays:
Type in all cases: biochemical
[1] = HTP-analysis of supernatants pretreated with acid (MUGal hydrolysis); details: challenge at pH 4.2; activity of the variant/activity of WT GLA (SEQ ID NO: 5); yeast supernatant
Procedure, shortened: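 GLA variants were secreted from INVSc1 yeast grown 66-84 h at 30° C. in SD-Ura with 2% glucose; supernatants were mixed with McIlvaine buffer pH 3.3-4.3 and held at 37° C. for 1-3 h. Residual activity on MUGal at pH 4.8 was then measured by fluorescence.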

[2] = HTP-analysis of supernatants pretreated with base (MUGal hydrolysis); details: challenge at pH 7.1; activity of the variant/activity of WT GLA (SEQ ID NO: 5); yeast supernatant
Procedure, shortened: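 GLA variants were secreted by transformed INVSc1 yeast grown 66-84 h at 30° C. Supernatants were exposed to neutral-to-basic buffers (pH 7.0-9.7) at 37° C for 1-18 h, then assayed with MUGal in acidic citrate/McIlvaine buffer, with fluorescence read after quenching.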

[3] = HTP-analysis of yeast culture supernatants, no challenge (MUGal hydrolysis); details: activity of the variant/activity of WT GLA (SEQ ID NO: 5), yeast supernatant
Procedure, shortened: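 GLA variants expressed in yeast INVSc1, secreted into SD-Ura broth over 66-84 h at 30° C; clarified supernatants tested without challenge. Supernatant mixed with McIlvaine buffer pH 4.8 and 2 mM MUGal (citrate/KCl, pH 4.6), 37° C for 30-180 min, carbonate-quenched, fluorescence Ex 355/Em 448 nm.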

B1: 86 (protein)
chain: LDNGLARTPTMGWLHWERFMCNLDCQEEPDSCISEKLFMEMAELMVSEGWKDAGYEYLCIDDCWMAPQRDSEGRLQADPQRFPHGIRQLANYVHSKGLKLGIYADVGNKTCAGFPGSFGYYDIDAQTFADWGVDLLKFDGCYCDSLENLADGYKHMSLALNRTGRSIVYSCEWPLYMWPFQKPNYTEIRQYCNHWRNFADIDDSWKSIKSILDWTSFNQERIVDVAGPGGWNDPDMLVIGNFGLSWNQQVTQMALWAIMAAPLFMSNDLRHISPQAKALLQDKDVIAINQDPLGKQGYQLRQGDNFEVWERPLSGLAWAVAMINRQEIGGPRSYTIAVASLGKGVACNPACFITQLLPVKRKLGFYEWTSRLRSHINPTGTVLLQLENTMQMSKPLLL
modifications: Synthetic Polypeptide sequence of Variant No. 86 of mature Human GLA
Relative Activity of GLA Variants After Challenge at pH 4.2 [1]: ++ (++ = >1.5 to 2.5 relative activity over WT GLA (SEQ ID NO: 5))
Relative Activity of GLA Variants After Challenge at pH 7.1 [2]: ++ (++ = >1.5 to 2.5 relative activity over WT GLA (SEQ ID NO: 5))
Relative Activity of GLA Variants After No Challenge (NC) [3]: ++ (++ = >1.5 to 2.5 relative activity over WT GLA (SEQ ID NO: 5))

B2: 95 (protein)
chain: B1 chain with L158A, P395D
modifications: Synthetic Polypeptide sequence of Variant No. 95 of mature Human GLA
Relative Activity of GLA Variants After Challenge at pH 4.2 [1]: + (+ = 0.5 to 1.5 relative activity over WT GLA (SEQ ID NO: 5))
Relative Activity of GLA Variants After Challenge at pH 7.1 [2]: + (+ = 0.5 to 1.5 relative activity over WT GLA (SEQ ID NO: 5))
Relative Activity of GLA Variants After No Challenge (NC) [3]: + (+ = 0.5 to 1.5 relative activity over WT GLA (SEQ ID NO: 5))

B3: 88 (protein)
chain: B1 chain with P395S
modifications: Synthetic Polypeptide sequence of Variant No. 88 of mature Human GLA
Relative Activity of GLA Variants After Challenge at pH 4.2 [1]: ++ (++ = >1.5 to 2.5 relative activity over WT GLA (SEQ ID NO: 5))
Relative Activity of GLA Variants After Challenge at pH 7.1 [2]: + (+ = 0.5 to 1.5 relative activity over WT GLA (SEQ ID NO: 5))
Relative Activity of GLA Variants After No Challenge (NC) [3]: + (+ = 0.5 to 1.5 relative activity over WT GLA (SEQ ID NO: 5))

B4: 90 (protein)
chain: B1 chain with K96I, P395D
modifications: Synthetic Polypeptide sequence of Variant No. 90 of mature Human GLA
Relative Activity of GLA Variants After Challenge at pH 4.2 [1]: + (+ = 0.5 to 1.5 relative activity over WT GLA (SEQ ID NO: 5))
Relative Activity of GLA Variants After Challenge at pH 7.1 [2]: + (+ = 0.5 to 1.5 relative activity over WT GLA (SEQ ID NO: 5))
Relative Activity of GLA Variants After No Challenge (NC) [3]: + (+ = 0.5 to 1.5 relative activity over WT GLA (SEQ ID NO: 5))

B5: 92 (protein)
chain: B1 chain with K96R, P395D
modifications: Synthetic Polypeptide sequence of Variant No. 92 of mature Human GLA
Relative Activity of GLA Variants After Challenge at pH 4.2 [1]: + (+ = 0.5 to 1.5 relative activity over WT GLA (SEQ ID NO: 5))
Relative Activity of GLA Variants After Challenge at pH 7.1 [2]: + (+ = 0.5 to 1.5 relative activity over WT GLA (SEQ ID NO: 5))
Relative Activity of GLA Variants After No Challenge (NC) [3]: + (+ = 0.5 to 1.5 relative activity over WT GLA (SEQ ID NO: 5))

B6: 93 (protein)
chain: B1 chain with K96R, P395D, L397V
modifications: Synthetic Polypeptide sequence of Variant No. 93 of mature Human GLA
Relative Activity of GLA Variants After Challenge at pH 4.2 [1]: +++ (+++ = >2.5 relative activity over WT GLA (SEQ ID NO: 5))
Relative Activity of GLA Variants After Challenge at pH 7.1 [2]: + (+ = 0.5 to 1.5 relative activity over WT GLA (SEQ ID NO: 5))
Relative Activity of GLA Variants After No Challenge (NC) [3]: ++ (++ = >1.5 to 2.5 relative activity over WT GLA (SEQ ID NO: 5))

B7: 94 (protein)
chain: B1 chain with L100F, P395D
modifications: Synthetic Polypeptide sequence of Variant No. 94 of mature Human GLA
Relative Activity of GLA Variants After Challenge at pH 4.2 [1]: + (+ = 0.5 to 1.5 relative activity over WT GLA (SEQ ID NO: 5))
Relative Activity of GLA Variants After Challenge at pH 7.1 [2]: + (+ = 0.5 to 1.5 relative activity over WT GLA (SEQ ID NO: 5))
Relative Activity of GLA Variants After No Challenge (NC) [3]: + (+ = 0.5 to 1.5 relative activity over WT GLA (SEQ ID NO: 5))

B8: 87 (protein)
chain: B1 chain with P395R
modifications: Synthetic Polypeptide sequence of Variant No. 87 of mature Human GLA
Relative Activity of GLA Variants After Challenge at pH 4.2 [1]: ++ (++ = >1.5 to 2.5 relative activity over WT GLA (SEQ ID NO: 5))
Relative Activity of GLA Variants After Challenge at pH 7.1 [2]: + (+ = 0.5 to 1.5 relative activity over WT GLA (SEQ ID NO: 5))
Relative Activity of GLA Variants After No Challenge (NC) [3]: + (+ = 0.5 to 1.5 relative activity over WT GLA (SEQ ID NO: 5))

B9: 89 (protein)
chain: B1 chain with P395T
modifications: Synthetic Polypeptide sequence of Variant No. 89 of mature Human GLA
Relative Activity of GLA Variants After Challenge at pH 4.2 [1]: + (+ = 0.5 to 1.5 relative activity over WT GLA (SEQ ID NO: 5))
Relative Activity of GLA Variants After Challenge at pH 7.1 [2]: + (+ = 0.5 to 1.5 relative activity over WT GLA (SEQ ID NO: 5))
Relative Activity of GLA Variants After No Challenge (NC) [3]: ++ (++ = >1.5 to 2.5 relative activity over WT GLA (SEQ ID NO: 5))

B10: 96 (protein)
chain: B1 chain with L158I, P395D
modifications: Synthetic Polypeptide sequence of Variant No. 96 of mature Human GLA
Relative Activity of GLA Variants After Challenge at pH 4.2 [1]: + (+ = 0.5 to 1.5 relative activity over WT GLA (SEQ ID NO: 5))
Relative Activity of GLA Variants After Challenge at pH 7.1 [2]: + (+ = 0.5 to 1.5 relative activity over WT GLA (SEQ ID NO: 5))
Relative Activity of GLA Variants After No Challenge (NC) [3]: + (+ = 0.5 to 1.5 relative activity over WT GLA (SEQ ID NO: 5))

B11: 91 (protein)
chain: B1 chain with K96L, P395D
modifications: Synthetic Polypeptide sequence of Variant No. 91 of mature Human GLA
Relative Activity of GLA Variants After Challenge at pH 4.2 [1]: + (+ = 0.5 to 1.5 relative activity over WT GLA (SEQ ID NO: 5))
Relative Activity of GLA Variants After Challenge at pH 7.1 [2]: ++ (++ = >1.5 to 2.5 relative activity over WT GLA (SEQ ID NO: 5))
Relative Activity of GLA Variants After No Challenge (NC) [3]: + (+ = 0.5 to 1.5 relative activity over WT GLA (SEQ ID NO: 5))

B12: 97 (protein)
chain: B1 chain with L158M, P395D
modifications: Synthetic Polypeptide sequence of Variant No. 97 of mature Human GLA
Relative Activity of GLA Variants After Challenge at pH 4.2 [1]: + (+ = 0.5 to 1.5 relative activity over WT GLA (SEQ ID NO: 5))
Relative Activity of GLA Variants After Challenge at pH 7.1 [2]: + (+ = 0.5 to 1.5 relative activity over WT GLA (SEQ ID NO: 5))
Relative Activity of GLA Variants After No Challenge (NC) [3]: + (+ = 0.5 to 1.5 relative activity over WT GLA (SEQ ID NO: 5))
